The record followed here is paper PMC11736000, “Structural and functional analysis of a bile salt hydrolase from the bison microbiome” (The Journal of Biological Chemistry, 2024).

Common to all, as to experiment: steady-state kinetics (KM), o-phthaladehyde assay; HPLC/MS
What all share (type): biochemical, Arthrobacter citreus

Substrate in data set [1]: C[C@H](CCC(=O)NCC(=O)O)[C@H]1CC[C@H]2[C@@H]3CC[C@@H]4C[C@H](O)CC[C@]4(C)[C@H]3C[C@H](O)[C@]12C
Substrate in data set [2]: C[C@H](CCC(=O)NCC(=O)O)[C@H]1CC[C@H]2[C@@H]3[C@H](O)C[C@@H]4C[C@H](O)CC[C@]4(C)[C@H]3C[C@H](O)[C@]12C
Substrate in data set [3]: C[C@H](CCC(=O)NCCS(=O)(=O)O)[C@H]1CC[C@H]2[C@@H]3CC[C@@H]4C[C@H](O)CC[C@]4(C)[C@H]3C[C@H](O)[C@]12C

B1: bile salt hydrolase from Arthrobacter citreus EINP1 (BSHAc) (Arthrobacter citreus) (protein)
chain: CTGIRYSDGSGNLYLARNLDWTSDFGERVVVTPTGYTTKSPFGAVPAIRHAVIGMGIVQEDTPLYFDCGNDAGLAVAGLNFPGYAQYATEAVDGATNVAAFEFPLWVASQFASVDEVEAALADVVIVDRPINDKYPSSLLHWIIGDSKRAIVVEYTSDGLHVFDDDVDVLANQPGFGWHHENLRNYLNASPDFPEKIVLNRADLVPFGSGSLMRGIPGDYYSPSRFVRAAYVHAHYPGKSTEEENVSRAFHTLQQVAMVDGSAAMGSGEFEKTTYTGLFSSRTMTYYWNTYEDPAVRSVAMADHAADGTELVVV
notes: C-terminally hexahistidine-tagged recombinant BSHAc; NCBI WP_342023006.1
Take B1: in data set [1], the Michaelis constant (Km) came out at 380 µM, the kcat was 1630 ± 40 s⁻¹ and the kcat/Km stood at 4.3e+06 ± 400000 M⁻¹ s⁻¹. In data set [2], the Km amounted to 1700 µM, the kcat was determined as 1500 ± 50 s⁻¹ and the kcat/Km amounted to 880000 ± 10000 M⁻¹ s⁻¹. Also, in data set [3], the Km is 740 µM, the kcat was found to be 342 ± 6 s⁻¹ and the kcat/Km turned out to be 460000 ± 50000 M⁻¹ s⁻¹.
